Measurements: article PMC12267109, “The enzyme kinetics of branched‐chain fatty acid synthesis of metazoan fatty acid synthase” (Protein Science : A Publication of the Protein Society, 2025)

Key:
[1] = target: KS-MAT^S581A didomain of murine FAS (functional MAT knockout) (murine)
[2] = test system: CC(=O)SCCNC(=O)CCNC(=O)[C@H](O)C(C)(C)COP(=O)(O)OP(=O)(O)OC[C@H]1O[C@@H](n2cnc3c(N)ncnc32)[C@H](O)[C@@H]1OP(=O)(O)O; experiment: purified protein; details: NADPH substrates likely compete in the malonyl-acetyl transferase (MAT) binding pocket

decanoyl-acyl carrier protein (ACP) (domain or fragment)
Inhibition constant K i (substrate inhibition on titration of decanoyl-ACP at constant metmal-ACP; KS elongation activity by the enzyme-coupled MabA assay, apparent constant) [1]: 270 µM

metazoan fatty acid synthase (mFAS), murine FAS (Mus musculus)
Km [2]: 69 ± 12 µM
